Laboratory results from patent US20140205597A1.
Where a chain is given by its changes, count along the chain named. Names may count otherwise.

B1: Nb6.2 (VHH)
VHH: EVQLVESGGGLVQPGGSLRLSCIASGLPFSTKSMGWFRQAPGKEREFVARISPGGTSRYYGDFVKGRFAISRDNAKNTTWLQMNSLKAEDTAVYYCASGERSTYIGSNYYRTNEYDYWGTGTQVTVSS
B2: Nb3.10 (VHH)
VHH: EVQLVESGGGLVQAGGSLRLSCAASRSIGRLDRMGWYRHRPGEPRELVATITGGSSINYGDSVKGRFTISIDNSKNTVYLQMNSLRPEDTAVYYCNFNKYVTSRDTWGQGTLVTVSS
B3: Nb3.15 (VHH)
VHH: B2 VHH with L11S, A14P
B4: Nb3.12 (VHH)
VHH: B2 VHH with L112Q
B5: Nb3.14 (VHH)
VHH: B2 VHH with A14P, T114Q
B6: Nb3.1 (VHH)
VHH: B2 VHH with P41T, S62F, S74A, S84N, R86K, L112Q
B7: Nb3.11 (VHH)
VHH: B2 VHH with A14P, R86K
B8: Nb3.13 (VHH)
VHH: B2 VHH with A14P, L112Q
B9: Nb6.5 (VHH)
VHH: EVQLLESGGGLVQPGGSLRLSCAASGLPFSTKSMGWFRQAPGKGREFVSRISPGGTSRYYGDFVKGRFTISRDNSKNTLYLQMNSLRAEDTAVYYCASGERSTYIGSNYYRTNEYDYWGQGTLVTVSS
B10: Nb4.1 (VHH)
VHH: EVQLVESGGGLVQPGGSLRLSCAASGSVFKINVMAWYRQAPGKGRELVAGIISGGSTSYADSVKGRFTISRDNAKNTLYLQMNSLRPEDTAVYYCAFITTESDYDLGRRYWGQGTLVTVSS
B11: Example 1C: wildtype VHH (SEQ ID NO: 23) (VHH)
VHH: EVQLVESGGGLVQAGGSLRLSCAASGRTFNNYAMGWFRRAPGKEREFVAAITRSGVRSGVSAIYGDSVKDRFTISRDNAKNTLYLQMNSLKPEDTAVYTCAASAIGSGALRRFEYDYSGQGTQVTVSS
B12: Example 1C: (K83R) (SEQ ID NO: 25) (VHH)
VHH: B11 VHH with K91R
B13: Example 1C: (A14P, K83R, Q108L) (SEQ ID NO: 27) (VHH)
VHH: B11 VHH with A14P, K91R, Q123L
B14: Example 1C: (Q108L) (SEQ ID NO: 26) (VHH)
VHH: B11 VHH with Q123L
B15: Example 1C: (A14P, R39Q, K83R, T91Y, Q108L) (SEQ ID NO: 28) (VHH)
VHH: B11 VHH with A14P, R39Q, K91R, T99Y, Q123L
B16: Example 1C: (A14P) (SEQ ID NO: 24) (VHH)
VHH: B11 VHH with A14P

Target: analytical polyclonal antibody obtained in Example 2
Test: SPR Biacore T100, immobilized polyclonal, 500 nM ISV

| Binding (RU) | Binder |
| --- | --- |
| 39 RU | B1 |
| 91 RU | B2 |
| 22 RU | B3 |
| 86 RU | B4 |
| 79 RU | B5 |
| 2 RU | B6 |
| 88 RU | B7 |
| 90 RU | B8 |
| 66 RU | B9 |
| 51 RU | B10 |

Target: affinity purified antibody IHuP#002-001-ABL-08
Test: ECL bridging/competition assay, 10 ug/ml ISV vs tagged ISV

| % reduction | ECLU confirmatory assay | Binder |
| --- | --- | --- |
| 7.3% | 2710 ECLU | B11 |
| 15.7% | 2460 ECLU | B12 |
| 89.1% | 319 ECLU | B13 |
| 13.2% | 2530 ECLU | B14 |
| 91.4% | 251 ECLU | B15 |
| 90.8% | 268 ECLU | B16 |

Target: serum sample IHUS#B09032311A1
Test: ECL displacement assay, variant competes with tagged SEQ ID NO:1

| % reduction | ECLU confirmatory assay | Binder |
| --- | --- | --- |
| 4% | 60 ECLU | B11 |
| 1% | 62 ECLU | B12 |
| 8% | 57 ECLU | B13 |
| 5% | 59 ECLU | B14 |
| 6% | 58 ECLU | B15 |
| 10% | 56 ECLU | B16 |

Target: serum sample IHUS#B09032311A3
Test: as above

| % reduction | ECLU confirmatory assay | Binder |
| --- | --- | --- |
| 20% | 1780 ECLU | B11 |
| 37% | 1400 ECLU | B12 |
| 93% | 156 ECLU | B13 |
| 31% | 1530 ECLU | B14 |
| 90% | 228 ECLU | B15 |
| 91% | 205 ECLU | B16 |

Target: serum sample IHUS#B09032311A20
Test: as above

| % reduction | ECLU confirmatory assay | Binder |
| --- | --- | --- |
| 53% | 8680 ECLU | B11 |
| 63% | 6910 ECLU | B12 |
| 97% | 628 ECLU | B13 |
| 62% | 6990 ECLU | B14 |
| 97% | 570 ECLU | B15 |
| 96% | 668 ECLU | B16 |
